± gives the standard deviation of the averaged measurements.
B1: library; a variant is named by its letters at N, in order (parent)
chain: GCUGUCACCGAGAAACUGUGAAGUAUAUCUUAAACCUGGGCACUUAAAAGAUAUAUGGAGUUAGUAGUGCAACCUGCUCGGUCUGAUGAGUCCNNNNNNGGACGAAACAGC

Assays:
[1] = variants of: B1; assay: normalized RNA/DNA level without ligand (relative to sTRSVctl = 100) (log10 (% of sTRSVctl)); HEK293T; ligand: cyclic di-GMP (c-di-GMP-II aptamer); higher = less ribozyme self-cleavage, higher mRNA level; details: reporter: mCherry (pCS4076), ligand present: no
Outline: (§1)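 Total RNA, extracted with EDTA 72 h after HEK293T cells were transfected with 4 µg per 6-well well of reporter-linked ribozyme switch library plasmids, was reverse-transcribed, amplified, barcoded and sequenced. Ligand, if used, was added 1 h before transfection. RNA level was derived from RNA reads divided by DNA reads and normalized to a spiked-in non-cleaving sequence or to the top sequences. This was multiplied by 100 and log10-transformed, with the top set of 25 sequences and a ≥100 DNA read minimum.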

[2] = variants of: B1; assay: normalized RNA/DNA level with ligand (relative to sTRSVctl = 100) (log10 (% of sTRSVctl)); HEK293T; ligand: cyclic di-GMP (c-di-GMP-II aptamer); ligand concentration (+) RNA-Seq: 1 mM; higher = less ribozyme self-cleavage, higher mRNA level; details: reporter: mCherry (pCS4076), ligand present: yes
Outline: as §1

Row | Variant | normalized RNA/DNA level without ligand (log10) [1] | normalized RNA/DNA level with ligand (log10) [2]
1 | GAAGCU | 1.715 ± 0.017 | 1.83 ± 0.11
2 | UGUUGG | 1.71 ± 0.04 | 1.86 ± 0.076
3 | UGUUGU | 1.72 ± 0.015 | 1.9 ± 0.061
4 | UGGACA | 1.712 ± 0.0091 | 1.83 ± 0.11
5 | GUUUAG | 1.59 ± 0.041 | 1.78 ± 0.091
6 | CAGUAG | 1.724 ± 0.013 | 1.83 ± 0.096
7 | UUCAUA | 1.69 ± 0.019 | 1.82 ± 0.12
8 | AGGUCC | 1.86 ± 0.022 | 1.94 ± 0.08
9 | UGCCCA | 1.88 ± 0.032 | 1.96 ± 0.096
10 | CUCACC | 1.7 ± 0.079 | 1.825 ± 0.013
11 | CUCACU | 1.57 ± 0.052 | 1.77 ± 0.092
12 | CCAGCC | 1.762 ± 0.0075 | 1.86 ± 0.13
13 | CCAGCG | 1.76 ± 0.036 | 1.91 ± 0.097
14 | CUGCUG | 1.63 ± 0.055 | 1.79 ± 0.11
15 | GGUCCG | 1.9 ± 0.057 | 1.96 ± 0.13
16 | GAGUCA | 1.82 ± 0.021 | 1.9 ± 0.085
17 | AUCAUC | 1.8459 ± 0.00049 | 1.935 ± 0.0035
18 | UAGGCC | 1.819 ± 0.0024 | 1.9 ± 0.095
19 | UUCCCA | 1.79 ± 0.07 | 1.92 ± 0.12
20 | UUCCCU | 1.766 ± 0.012 | 1.89 ± 0.048
21 | CAACCA | 1.54 ± 0.084 | 1.71 ± 0.1
22 | GCGCAG | 1.78 ± 0.023 | 1.9 ± 0.094
23 | GCAUGC | 1.68 ± 0.026 | 1.81 ± 0.097

Row | Variant | normalized RNA/DNA level without ligand (log10) [1] | normalized RNA/DNA level with ligand (log10) [2]
24 | UUUUGC | 1.76 ± 0.045 | 1.85 ± 0.11
25 | UUUUGU | 1.74 ± 0.035 | 1.87 ± 0.15
26 | GAAUUA | 1.55 ± 0.026 | 1.74 ± 0.097
27 | CGAUCC | 1.82 ± 0.026 | 1.9 ± 0.088
28 | AUGCCC | 1.79 ± 0.051 | 1.82 ± 0.14
29 | CGGUGG | 1.66 ± 0.066 | 1.79 ± 0.1
30 | CGUUGU | 1.76 ± 0.018 | 1.86 ± 0.1
31 | GCCAAA | 1.49 ± 0.1 | 1.68 ± 0.08
32 | AAUGUC | 1.68 ± 0.03 | 1.84 ± 0.11
33 | CCUGCU | 1.698 ± 0.0032 | 1.84 ± 0.1
34 | GAUGAU | 1.56 ± 0.064 | 1.75 ± 0.099
35 | AAAUAG | 1.54 ± 0.025 | 1.7 ± 0.16
36 | UACCGG | 1.68 ± 0.025 | 1.87 ± 0.11
37 | AAGUUC | 1.6603 ± 0.0013 | 1.84 ± 0.11
38 | UGGAUA | 1.65 ± 0.043 | 1.8 ± 0.11
39 | AUUUUG | 1.68 ± 0.045 | 1.81 ± 0.056
40 | GCGAGC | 1.55 ± 0.066 | 1.71 ± 0.04
41 | ACGGCU | 1.56 ± 0.018 | 1.75 ± 0.12
42 | GGCCUA | 1.61 ± 0.12 | 1.83 ± 0.13
43 | CAGACG | 1.681 ± 0.013 | 1.77 ± 0.088
44 | UAUGUC | 1.73 ± 0.034 | 1.85 ± 0.099
45 | AGAGAC | 1.56 ± 0.035 | 1.69 ± 0.088
46 | CCUAAG | 1.56 ± 0.049 | 1.74 ± 0.095

Row | Variant | normalized RNA/DNA level without ligand (log10) [1] | normalized RNA/DNA level with ligand (log10) [2]
47 | AGAUCA | 1.59 ± 0.076 | 1.74 ± 0.081
48 | GUUGGG | 1.6 ± 0.1 | 1.76 ± 0.065
49 | UCACGC | 1.7 ± 0.045 | 1.84 ± 0.08
50 | GUGUAG | 1.7031 ± 0.0011 | 1.85 ± 0.095
51 | CAAGAU | 1.6 ± 0.048 | 1.79 ± 0.086
52 | GACACG | 1.7112 ± 0.0013 | 1.82 ± 0.12
53 | GCCCGC | 1.76 ± 0.04 | 1.86 ± 0.15
54 | AGCUUA | 1.57 ± 0.055 | 1.76 ± 0.11
55 | UUCUUC | 1.78 ± 0.05 | 1.89 ± 0.16
56 | CGUGGC | 1.748 ± 0.0072 | 1.85 ± 0.15
57 | UUCCUC | 1.779 ± 0.013 | 1.91 ± 0.1
58 | GUCGUA | 1.63 ± 0.073 | 1.78 ± 0.095
59 | CCGGAG | 1.31 ± 0.13 | 1.52 ± 0.14
60 | AUGUCU | 1.7 ± 0.028 | 1.84 ± 0.046
61 | AAUAUA | 1.53 ± 0.054 | 1.72 ± 0.13
62 | UAGAGU | 1.56 ± 0.066 | 1.73 ± 0.067
63 | UAGAGC | 1.712 ± 0.005 | 1.85 ± 0.047
64 | UUACAU | 1.677 ± 0.014 | 1.82 ± 0.1
65 | CGCGAC | 1.62 ± 0.041 | 1.8 ± 0.046
66 | ACUACC | 1.69 ± 0.04 | 1.86 ± 0.097
67 | AAUUCU | 1.769 ± 0.0077 | 1.9 ± 0.092
68 | GAUGUC | 1.7082 ± 0.001 | 1.87 ± 0.12
69 | UUGGAU | 1.63 ± 0.032 | 1.83 ± 0.1

Row | Variant | normalized RNA/DNA level without ligand (log10) [1] | normalized RNA/DNA level with ligand (log10) [2]
70 | ACUAGA | 1.41 ± 0.066 | 1.64 ± 0.12
71 | AUCCGC | 1.76 ± 0.032 | 1.88 ± 0.13
72 | CGUCCG | 1.82 ± 0.035 | 1.89 ± 0.069
73 | GCACGU | 1.49 ± 0.07 | 1.7 ± 0.12
74 | UUGUAC | 1.74 ± 0.089 | 1.85 ± 0.18
75 | CGUGUA | 1.4 ± 0.062 | 1.56 ± 0.13
76 | CGUGUC | 1.67 ± 0.055 | 1.82 ± 0.038
77 | UAUCUC | 1.81 ± 0.039 | 1.9 ± 0.1
78 | AUCAGG | 1.62 ± 0.072 | 1.77 ± 0.12
79 | GUCUUU | 1.7 ± 0.033 | 1.83 ± 0.092
80 | UCAUGA | 1.57 ± 0.026 | 1.75 ± 0.12
81 | CCUGUU | 1.67 ± 0.019 | 1.86 ± 0.084
82 | UGGCAC | 1.72 ± 0.043 | 1.86 ± 0.024
83 | UGGAAA | 1.626 ± 0.0078 | 1.83 ± 0.059
84 | ACGUUG | 1.52 ± 0.083 | 1.74 ± 0.035
85 | AUUUGU | 1.66 ± 0.017 | 1.85 ± 0.12
86 | CCGCGA | 1.59 ± 0.053 | 1.76 ± 0.07
87 | UUUUAC | 1.74 ± 0.055 | 1.87 ± 0.14
88 | UUUUAG | 1.74 ± 0.022 | 1.89 ± 0.065
89 | GAUACU | 1.7 ± 0.025 | 1.82 ± 0.068
90 | ACAGAC | 1.49 ± 0.056 | 1.71 ± 0.049
91 | UGACAC | 1.7 ± 0.022 | 1.87 ± 0.086
92 | AAUACA | 1.56 ± 0.017 | 1.74 ± 0.1

Row | Variant | normalized RNA/DNA level without ligand (log10) [1] | normalized RNA/DNA level with ligand (log10) [2]
93 | UCGCUC | 1.742 ± 0.011 | 1.87 ± 0.14
94 | UGUGGU | 1.667 ± 0.012 | 1.81 ± 0.065
95 | AGUUUC | 1.75 ± 0.025 | 1.85 ± 0.13
96 | CCUACA | 1.53 ± 0.07 | 1.77 ± 0.044
97 | CUUCUC | 1.77 ± 0.049 | 1.86 ± 0.14
98 | AGACUC | 1.74 ± 0.054 | 1.83 ± 0.094
99 | CCCUUU | 1.61 ± 0.053 | 1.83 ± 0.096
100 | GGUACG | 1.661 ± 0.0037 | 1.821 ± 0.013
101 | CAGGUG | 1.62 ± 0.056 | 1.76 ± 0.084
102 | AACGUA | 1.51 ± 0.024 | 1.73 ± 0.1
103 | AGCCUC | 1.77 ± 0.073 | 1.87 ± 0.13
104 | CUUGCA | 1.66 ± 0.018 | 1.77 ± 0.1
105 | UCAACC | 1.78 ± 0.044 | 1.9 ± 0.067
106 | UGAGUA | 1.73 ± 0.032 | 1.85 ± 0.15
107 | AUGGCA | 1.61 ± 0.02 | 1.75 ± 0.046
108 | UACGAC | 1.67 ± 0.017 | 1.82 ± 0.11
109 | GUGUCC | 1.77 ± 0.045 | 1.86 ± 0.094
110 | ACUGGC | 1.61 ± 0.084 | 1.79 ± 0.12
111 | GACAGC | 1.74 ± 0.087 | 1.87 ± 0.14
112 | GUUAAA | 1.51 ± 0.079 | 1.7 ± 0.12
113 | GCUUGG | 1.59 ± 0.023 | 1.8 ± 0.072
114 | ACUGUG | 1.6 ± 0.038 | 1.76 ± 0.11
115 | CAUUAG | 1.74 ± 0.021 | 1.84 ± 0.087

Reference: the supplement of paper PMC6757056
